Measurements: patent US20070281327A1 (published 2007)

T1: human Mpl expressed on BaF3 cells (BaF3-human Mpl) (human, UniProt P40238 26-635)
T1 sequence (looked up): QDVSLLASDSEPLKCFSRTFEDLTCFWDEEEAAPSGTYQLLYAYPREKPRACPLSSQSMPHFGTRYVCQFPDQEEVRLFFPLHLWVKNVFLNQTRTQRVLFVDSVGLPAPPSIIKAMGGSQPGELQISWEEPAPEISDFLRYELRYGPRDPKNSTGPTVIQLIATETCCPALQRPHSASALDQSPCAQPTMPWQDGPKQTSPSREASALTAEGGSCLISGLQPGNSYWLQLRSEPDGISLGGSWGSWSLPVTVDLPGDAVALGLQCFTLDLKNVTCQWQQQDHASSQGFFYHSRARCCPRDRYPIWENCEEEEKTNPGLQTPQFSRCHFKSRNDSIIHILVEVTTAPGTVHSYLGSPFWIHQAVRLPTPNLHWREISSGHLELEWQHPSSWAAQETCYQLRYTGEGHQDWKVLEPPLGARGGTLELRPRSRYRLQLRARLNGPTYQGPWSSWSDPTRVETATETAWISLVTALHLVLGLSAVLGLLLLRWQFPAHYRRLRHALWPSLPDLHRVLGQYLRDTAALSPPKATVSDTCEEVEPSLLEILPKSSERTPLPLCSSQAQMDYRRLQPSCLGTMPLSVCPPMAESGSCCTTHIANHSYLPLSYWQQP

T2: Human Mpl-IgG Fc fusion protein (hMpl-Fc) (human, UniProt P40238 26-491)
T2 construct: range 26-491; Expressed in CHO-DG44 cells with a 19-amino acid signal peptide from a human IgG H chain variable region, which is not part of the mature protein; No numbering scheme is named for Asp 216; also called shMPL-Fc; not shown: Fc region of human IgG-gamma1, a region downstream of Asp 216
T2 sequence: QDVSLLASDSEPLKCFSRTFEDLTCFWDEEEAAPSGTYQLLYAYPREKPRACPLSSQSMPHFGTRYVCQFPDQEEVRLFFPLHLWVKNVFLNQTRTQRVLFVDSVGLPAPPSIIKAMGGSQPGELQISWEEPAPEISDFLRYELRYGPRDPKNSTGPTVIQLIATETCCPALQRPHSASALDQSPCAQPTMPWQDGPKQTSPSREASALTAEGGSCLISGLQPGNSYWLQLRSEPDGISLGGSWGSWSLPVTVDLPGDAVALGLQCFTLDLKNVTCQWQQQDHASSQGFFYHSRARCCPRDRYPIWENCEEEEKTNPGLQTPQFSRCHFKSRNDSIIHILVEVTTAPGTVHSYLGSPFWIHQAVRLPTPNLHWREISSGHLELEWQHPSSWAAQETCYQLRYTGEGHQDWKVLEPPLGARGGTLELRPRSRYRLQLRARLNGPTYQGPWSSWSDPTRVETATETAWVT


Tests used:
[1] = target: T1, human Mpl expressed on BaF3 cells …; test: cell-based or functional assay
[2] = target: T2, Human Mpl-IgG Fc fusion protein …; test: ELISA on plates coated with hMpl-Fc, IgG
[3] = target: T2, Human Mpl-IgG Fc fusion protein …; test: ELISA on plates coated with hMpl-Fc, sc(Fv)2 detected by anti-FLAG M2
Experimental: (§1) The binding activity of anti-human Mpl single-chain antibody to hMPL-Fc was assessed using ELISA. After plates were coated with 0.5 μg/ml purified hMPL-Fc, blocking treatment was carried out using Diluent buffer. A purified product of VA130 was diluted to an appropriate concentration and added to the plates. Then, the plates were allowed to stand at room temperature for one hour. After washing with Rinse buffer, 1000-times-diluted ANTI-FLAG M2 Monoclonal Antibody (SIGMA-ALDRICH) was added. The plates were incubated at room temperature for one hour. Next, after washing with Rinse buffer, 1000-times-diluted Alkaline Phosphatase-labeled anti-mouse IgG antibody (Zymed) was added, and the plates were allowed to stand at room temperature for one hour. After washing with Rinse buffer, color development was achieved using SIGMA104 (SIGMA-ALDRICH) diluted to 1 mg/ml in substrate buffer. Color was developed for 15 minutes at room temperature and then absorbance was determined at 405 nm with Benchmark Plus.

[4] = target: human Mpl expressed on BaF3 cells (BaF3-human Mpl) (human) (UniProt P40238); test: cell-based or functional assay
[5] = target: T2, Human Mpl-IgG Fc fusion protein …; test: ELISA on plates coated with hMpl-Fc, diabody detected by anti-FLAG M2
Experimental: as §1

TPO-like agonist activity, BaF3-human Mpl proliferation (WST-8), EC50 [1]	EC50 [2]	EC50 [3]	Agonistic activity, Analysis using Baf-hMpl (EC50) [4]	EC50 [5]	Binder
	0.15 nM				VB16 IgG (mouse monoclonal anti-human Mpl antibody VB16) (antibody, V domains shown) VH: QVQLQQPGTELVRPGASVKLSCKASGYTFTDYWVNWVKQRPGRGLEWIGRIHPYDSETHYNQKFKNKATLTVDKSSSTAYIQLSSLTSEDSAVYYCASGGWFASWGQGTLVTVSA VL: DIVMTQAAPSVPVTPGESVSISCRSSKSLLYSNGNTYLYWFLQRPGQSPQLLIYRMSNLASGVPDRFSGSGSGTAFTLTISSVEAEDVGVYYCMQHLEYPYTFGSGTKLEIK
		0.27 nM	1020 pM		VA130 sc(Fv)2 (other, A single polypeptide with two VH and two VL units from VA130; also called anti-human Mpl antibody sc(Fv)2; VA130 single-chain antibody) QVQLQQSGPELVKPGASVKISCKASGYAFSSSWMNWVKQRPGKGLEWIGRIYPGDGDTNYNGKFKGKATLTADKSSSTAYIQLSSLTSEDSAVYFCARGYADYSFAYWGQGTLVTVSAGGGGSGGGGSGGGGSDIVMTQAAPSVPVTPGESVSISCRSSKSLLHSNGNTYLYWFLQRPGQSPQLLIYRMSNLASGVPDRFSGSGSGTAFTLRISRVEAEDVGVYYCMQHLEYPYTFGSGTKLEIKGGGGSGGGGSGGGGSQVQLQQSGPELVKPGASVKISCKASGYAFSSSWMNWVKQRPGKGLEWIGRIYPGDGDTNYNGKFKGKATLTADKSSSTAYIQLSSLTSEDSAVYFCARGYADYSFAYWGQGTLVTVSAGGGGSGGGGSGGGGSDIVMTQAAPSVPVTPGESVSISCRSSKSLLHSNGNTYLYWFLQRPGQSPQLLIYRMSNLASGVPDRFSGSGSGTAFTLRISRVEAEDVGVYYCMQHLEYPYTFGSGTKLEIKDYKDDDDK

Continued, binder first:

Binder	TPO-like agonist activity, BaF3-human Mpl proliferation (WST-8), EC50 [1]	EC50 [2]	EC50 [3]	Agonistic activity, Analysis using Baf-hMpl (EC50) [4]	EC50 [5]
VA130 IgG (mouse monoclonal anti-human Mpl antibody VA130) (antibody, V domains shown, Whole mouse IgG from a hybridoma; also called VA130 antibody; VA130 anti-human Mpl antibody) VH: QVQLQQSGPELVKPGASVKISCKASGYAFSSSWMNWVKQRPGKGLEWIGRIYPGDGDTNYNGKFKGKATLTADKSSSTAYIQLSSLTSEDSAVYFCARGYADYSFAYWGQGTLVTVSA VL: DIVMTQAAPSVPVTPGESVSISCRSSKSLLHSNGNTYLYWFLQRPGQSPQLLIYRMSNLASGVPDRFSGSGSGTAFTLRISRVEAEDVGVYYCMQHLEYPYTFGSGTKLEIK	> 100 nM	0.38 nM			
VA130 diabody (VA130 single-chain Fv with a five-amino acid (Gly4Ser)1 linker, FLAG-tagged) (scFv, The order is VH-(Gly4Ser)1-VL-FLAG; also called VA130 db) scFv: QVQLQQSGPELVKPGASVKISCKASGYAFSSSWMNWVKQRPGKGLEWIGRIYPGDGDTNYNGKFKGKATLTADKSSSTAYIQLSSLTSEDSAVYFCARGYADYSFAYWGQGTLVTVSAGGGGSDIVMTQAAPSVPVTPGESVSISCRSSKSLLHSNGNTYLYWFLQRPGQSPQLLIYRMSNLASGVPDRFSGSGSGTAFTLRISRVEAEDVGVYYCMQHLEYPYTFGSGTKLEIKDYKDDDDK				222 pM	0.11 nM
